Molecular target: human FcαRI (IgA Fc receptor, CD89) on effector cells (human) (UniProt P24071)
Assay: cell-based or functional assay

Row | Substance | BsAb-dependent lysis of SKBR-3 cells by purified PMN, 1.0 µg/ml BsAb (FIG. 10) [%] | cytolysis of SKBR-3 breast tumor cells by effector cells in whole blood, 0.1 µg/ml BsAb (FIG. 8) [%] | cytolysis of SKBR-3 breast tumor cells by effector cells in whole blood, 1.0 µg/ml BsAb (FIG. 8) [%] | cytotoxicity of SKBR-3 cells by neutrophil effector cells (51Cr release), 0.1 µg/ml BsAb (FIG. 7) [%] | cytotoxicity of SKBR-3 cells by neutrophil effector cells (51Cr release), 1.0 µg/ml BsAb (FIG. 7) [%] | cytotoxicity of SKBR-3 cells by neutrophils pre-incubated with G-CSF and IFN-γ, 0.1 µg/ml BsAb (FIG. 22) [%] | percent effector cells (monocytes or neutrophils) engaged in phagocytosis of SKBR-3 cells (FIG. 18) [%] | phagocytosis of SKBR-3 cells by monocyte-derived macrophages, 0.1 µg/ml BsAb (FIG. 19, panel 5; about 45% without BsAb) [%] | BsAb-dependent lysis of A431 cells by purified monocytes (FIG. 14) [%] | BsAb-dependent lysis of A431 cells with whole blood as source of effector cells (FIG. 15) [%] | cytolysis of tumor cells by TNF-treated monocytes, 1.0 µg/ml BsAb (FIG. 23) [%] | cytolysis of tumor cells by untreated monocytes, 1.0 µg/ml BsAb (FIG. 23) [%]
1 | A77X520C9 anti-FcαRXanti-HER2/neu bispecific antibody | < 37 | 15 to 20 | 25 to 30 | 6 to 9 | 20 to 30 | > 10 | 65 to 75 | > 95 | – | – | – | –
2 | A77XH425 bispecific antibody (anti-FcαRI x anti-EGF-R) | – | – | – | – | – | – | – | – | < 55 | < 43 | > 60 | > 60
